Source: US20140087995A1 (published 2014)
Numbered stars: 1 amine (or outer) side, 2 acyl side, 3 side chain; on linkers, the order of the positions; unused ones are H or OH. Bridge positions count the residues as written; N and C are the ends. Side chains are listed from the residue outwards. Ends that are not written are not given here. * marks the point of attachment. C20 diacid = O=C(O)CCCCCCCCCCCCCCCCCCC(=O)*; γGlu = O=C(O)[C@H](CCC(=O)[*:2])N[*:1]

T1: human amylin receptor (amylin 3(a) receptor: human calcitonin receptor plus RAMP-3) (human, UniProt P30988 25-474; O60896 24-148, limits assumed)
T1 sequence (looked up) 1: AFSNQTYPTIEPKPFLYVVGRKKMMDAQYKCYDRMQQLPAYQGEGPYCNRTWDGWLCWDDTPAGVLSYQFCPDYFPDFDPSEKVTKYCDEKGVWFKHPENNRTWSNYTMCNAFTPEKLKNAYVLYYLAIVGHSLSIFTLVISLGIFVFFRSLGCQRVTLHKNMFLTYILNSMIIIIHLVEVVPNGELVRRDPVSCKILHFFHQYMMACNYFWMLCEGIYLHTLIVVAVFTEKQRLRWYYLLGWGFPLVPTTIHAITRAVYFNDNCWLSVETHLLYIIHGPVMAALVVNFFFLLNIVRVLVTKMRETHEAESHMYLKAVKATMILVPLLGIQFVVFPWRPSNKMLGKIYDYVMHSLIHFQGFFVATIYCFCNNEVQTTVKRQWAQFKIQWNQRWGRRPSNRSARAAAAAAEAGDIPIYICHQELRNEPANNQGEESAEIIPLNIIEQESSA
T1 sequence (looked up) 2: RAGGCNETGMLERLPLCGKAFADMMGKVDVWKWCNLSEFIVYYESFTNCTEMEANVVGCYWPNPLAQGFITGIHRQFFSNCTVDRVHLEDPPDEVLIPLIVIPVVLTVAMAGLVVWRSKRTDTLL

T2: human calcitonin receptor (human, UniProt P30988 25-474)
T2 sequence (looked up): T1 sequence (looked up) 1

T3: human amylin receptor (amylin 3(a) receptor: human calcitonin receptor co-expressed with RAMP-3) (human, UniProt P30988 25-474; O60896 24-148)
T3 sequence (looked up) 1: T1 sequence (looked up) 1
T3 sequence (looked up) 2: T1 sequence (looked up) 2

T4: human calcitonin receptor (human, UniProt P30988 25-474)
T4 sequence (looked up): T1 sequence (looked up) 1

B1: N^α1-[(4S)-4-carboxy-4-(19-carboxynonadecanoylamino)butanoyl]-[Arg17,Pro21,Pro27,Pro34,Glu35]-h-amylin (peptide)
peptide: {C20 diacid-γGlu}-KCNTATCATQRLANFLRHSSPNFGAIPSSTNVGPETY-NH2
modifications: disulfide 2-7
SMILES: CC[C@H](C)[C@H](NC(=O)[C@H](C)NC(=O)CNC(=O)[C@H](Cc1ccccc1)NC(=O)[C@H](CC(N)=O)NC(=O)[C@@H]1CCCN1C(=O)[C@H](CO)NC(=O)[C@H](CO)NC(=O)[C@H](Cc1c[nH]cn1)NC(=O)[C@H](CCCNC(=N)N)NC(=O)[C@H](CC(C)C)NC(=O)[C@H](Cc1ccccc1)NC(=O)[C@H](CC(N)=O)NC(=O)[C@H](C)NC(=O)[C@H](CC(C)C)NC(=O)[C@H](CCCNC(=N)N)NC(=O)[C@H](CCC(N)=O)NC(=O)[C@@H](NC(=O)[C@H](C)NC(=O)[C@@H]1CSSC[C@H](NC(=O)[C@H](CCCCN)NC(=O)CC[C@H](NC(=O)CCCCCCCCCCCCCCCCCCC(=O)O)C(=O)O)C(=O)N[C@@H](CC(N)=O)C(=O)N[C@@H]([C@@H](C)O)C(=O)N[C@@H](C)C(=O)N[C@@H]([C@@H](C)O)C(=O)N1)[C@@H](C)O)C(=O)N1CCC[C@H]1C(=O)N[C@@H](CO)C(=O)N[C@@H](CO)C(=O)N[C@H](C(=O)N[C@@H](CC(N)=O)C(=O)N[C@H](C(=O)NCC(=O)N1CCC[C@H]1C(=O)N[C@@H](CCC(=O)O)C(=O)N[C@H](C(=O)N[C@@H](Cc1ccc(O)cc1)C(N)=O)[C@@H](C)O)C(C)C)[C@@H](C)O
notes: Synthetic acylated analogue of human amylin; also called compound 29
B2: N^α1-[(4S)-4-carboxy-4-[[(4S)-4-carboxy-4-(19-carboxynonadecanoylamino)butanoyl]amino]butanoyl]-[Glu14,Arg17,Pro21,Pro27]-h-amylin (peptide)
peptide: {C20 diacid-γGlu-γGlu}-KCNTATCATQRLAEFLRHSSPNFGAIPSSTNVGSNTY-NH2
modifications: disulfide 2-7
SMILES: CC[C@H](C)[C@H](NC(=O)[C@H](C)NC(=O)CNC(=O)[C@H](Cc1ccccc1)NC(=O)[C@H](CC(N)=O)NC(=O)[C@@H]1CCCN1C(=O)[C@H](CO)NC(=O)[C@H](CO)NC(=O)[C@H](Cc1c[nH]cn1)NC(=O)[C@H](CCCNC(=N)N)NC(=O)[C@H](CC(C)C)NC(=O)[C@H](Cc1ccccc1)NC(=O)[C@H](CCC(=O)O)NC(=O)[C@H](C)NC(=O)[C@H](CC(C)C)NC(=O)[C@H](CCCNC(=N)N)NC(=O)[C@H](CCC(N)=O)NC(=O)[C@@H](NC(=O)[C@H](C)NC(=O)[C@@H]1CSSC[C@H](NC(=O)[C@H](CCCCN)NC(=O)CC[C@H](NC(=O)CC[C@H](NC(=O)CCCCCCCCCCCCCCCCCCC(=O)O)C(=O)O)C(=O)O)C(=O)N[C@@H](CC(N)=O)C(=O)N[C@@H]([C@@H](C)O)C(=O)N[C@@H](C)C(=O)N[C@@H]([C@@H](C)O)C(=O)N1)[C@@H](C)O)C(=O)N1CCC[C@H]1C(=O)N[C@@H](CO)C(=O)N[C@@H](CO)C(=O)N[C@H](C(=O)N[C@@H](CC(N)=O)C(=O)N[C@H](C(=O)NCC(=O)N[C@@H](CO)C(=O)N[C@@H](CC(N)=O)C(=O)N[C@H](C(=O)N[C@@H](Cc1ccc(O)cc1)C(N)=O)[C@@H](C)O)C(C)C)[C@@H](C)O
notes: Synthetic acylated analogue of human amylin; also called compound 15
B3: N^α1-[(4S)-4-carboxy-4-(19-carboxynonadecanoylamino)butanoyl]-[Glu14,Arg17,Pro21,Pro27,Pro34]-h-amylin (peptide)
peptide: {C20 diacid-γGlu}-KCNTATCATQRLAEFLRHSSPNFGAIPSSTNVGPNTY-NH2
modifications: disulfide 2-7
SMILES: CC[C@H](C)[C@H](NC(=O)[C@H](C)NC(=O)CNC(=O)[C@H](Cc1ccccc1)NC(=O)[C@H](CC(N)=O)NC(=O)[C@@H]1CCCN1C(=O)[C@H](CO)NC(=O)[C@H](CO)NC(=O)[C@H](Cc1c[nH]cn1)NC(=O)[C@H](CCCNC(=N)N)NC(=O)[C@H](CC(C)C)NC(=O)[C@H](Cc1ccccc1)NC(=O)[C@H](CCC(=O)O)NC(=O)[C@H](C)NC(=O)[C@H](CC(C)C)NC(=O)[C@H](CCCNC(=N)N)NC(=O)[C@H](CCC(N)=O)NC(=O)[C@@H](NC(=O)[C@H](C)NC(=O)[C@@H]1CSSC[C@H](NC(=O)[C@H](CCCCN)NC(=O)CC[C@H](NC(=O)CCCCCCCCCCCCCCCCCCC(=O)O)C(=O)O)C(=O)N[C@@H](CC(N)=O)C(=O)N[C@@H]([C@@H](C)O)C(=O)N[C@@H](C)C(=O)N[C@@H]([C@@H](C)O)C(=O)N1)[C@@H](C)O)C(=O)N1CCC[C@H]1C(=O)N[C@@H](CO)C(=O)N[C@@H](CO)C(=O)N[C@H](C(=O)N[C@@H](CC(N)=O)C(=O)N[C@H](C(=O)NCC(=O)N1CCC[C@H]1C(=O)N[C@@H](CC(N)=O)C(=O)N[C@H](C(=O)N[C@@H](Cc1ccc(O)cc1)C(N)=O)[C@@H](C)O)C(C)C)[C@@H](C)O
notes: Synthetic acylated analogue of human amylin; also called compound 32
B4: N^α1-[(4S)-4-carboxy-4-(19-carboxynonadecanoylamino)butanoyl]-[Glu14,Arg17,Pro21,Pro27,His34]-h-amylin (peptide)
peptide: {C20 diacid-γGlu}-KCNTATCATQRLAEFLRHSSPNFGAIPSSTNVGHNTY-NH2
modifications: disulfide 2-7
SMILES: CC[C@H](C)[C@H](NC(=O)[C@H](C)NC(=O)CNC(=O)[C@H](Cc1ccccc1)NC(=O)[C@H](CC(N)=O)NC(=O)[C@@H]1CCCN1C(=O)[C@H](CO)NC(=O)[C@H](CO)NC(=O)[C@H](Cc1c[nH]cn1)NC(=O)[C@H](CCCNC(=N)N)NC(=O)[C@H](CC(C)C)NC(=O)[C@H](Cc1ccccc1)NC(=O)[C@H](CCC(=O)O)NC(=O)[C@H](C)NC(=O)[C@H](CC(C)C)NC(=O)[C@H](CCCNC(=N)N)NC(=O)[C@H](CCC(N)=O)NC(=O)[C@@H](NC(=O)[C@H](C)NC(=O)[C@@H]1CSSC[C@H](NC(=O)[C@H](CCCCN)NC(=O)CC[C@H](NC(=O)CCCCCCCCCCCCCCCCCCC(=O)O)C(=O)O)C(=O)N[C@@H](CC(N)=O)C(=O)N[C@@H]([C@@H](C)O)C(=O)N[C@@H](C)C(=O)N[C@@H]([C@@H](C)O)C(=O)N1)[C@@H](C)O)C(=O)N1CCC[C@H]1C(=O)N[C@@H](CO)C(=O)N[C@@H](CO)C(=O)N[C@H](C(=O)N[C@@H](CC(N)=O)C(=O)N[C@H](C(=O)NCC(=O)N[C@@H](Cc1c[nH]cn1)C(=O)N[C@@H](CC(N)=O)C(=O)N[C@H](C(=O)N[C@@H](Cc1ccc(O)cc1)C(N)=O)[C@@H](C)O)C(C)C)[C@@H](C)O
notes: Synthetic acylated analogue of human amylin; also called compound 17
B5: N^ε1-[(4S)-4-carboxy-4-[[(4S)-4-carboxy-4-(19-carboxynonadecanoylamino)butanoyl]amino]butanoyl]-[Glu14,Arg17,Pro21,Pro27,Pro34,Glu35,Pro37]-h-amylin (peptide)
peptide: K([γGlu-γGlu-C20 diacid])CNTATCATQRLAEFLRHSSPNFGAIPSSTNVGPETP-NH2
modifications: disulfide 2-7 (inferred)
notes: Synthetic acylated analogue of human amylin
B6: N^ε1-[(4S)-4-carboxy-4-(19-carboxynonadecanoylamino)butanoyl]-[Glu14,Arg17,Pro21,Pro27,His35]-h-amylin (peptide)
peptide: K([γGlu-C20 diacid])CNTATCATQRLAEFLRHSSPNFGAIPSSTNVGSHTY-NH2
modifications: disulfide 2-7 (inferred)
notes: as for B5
B7: N^ε1-[(4S)-4-carboxy-4-[[(4S)-4-carboxy-4-(19-carboxynonadecanoylamino)butanoyl]amino]butanoyl]-[Glu14,Arg17,Pro21,Pro27,Pro34,Phe37]-h-amylin (peptide)
peptide: K([γGlu-γGlu-C20 diacid])CNTATCATQRLAEFLRHSSPNFGAIPSSTNVGPNTF-NH2
modifications: disulfide 2-7 (inferred)
notes: as for B5

target: T1, human amylin receptor (amylin 3(a) …); assay: cell-based or functional assay

Ratio hCT/hAmylin funct. | hAmylin-R funct. EC50 | Binder
8.7 ratio | 99 pM | B1
8.9 ratio | 386 pM | B2
6.6 ratio | 50 pM | B3
8.8 ratio | 268 pM | B4

target: T2, human calcitonin receptor; assay: cell-based or functional assay

hCTR funct. EC50 | Binder
857 pM | B1
3430 pM | B2
327 pM | B3
2350 pM | B4

target: T3, human amylin receptor (amylin 3(a) …); assay: cell-based or functional assay

hAmylin-R funct. EC50 (pM), CRE-luciferase reporter in BHK amylin 3(a) receptor cells | Binder
132 pM | B5
425 pM | B6
216 pM | B7

target: T4, human calcitonin receptor; assay: cell-based or functional assay

Ratio hCT/hAmylin funct. (hCTR EC50 against hAmylin-R EC50) | hCTR funct. EC50 (pM), CRE-luciferase reporter in BHK calcitonin (a) receptor cells | Binder
0.8 | 102 pM | B5
13.1 | 5580 pM | B6
9.9 | 2140 pM | B7

target: T3, human amylin receptor (amylin 3(a) …); assay: SPA competition binding, membranes of Amylin 3(a)/CRE-luc BHK cells, displacement of 125I-rat amylin (Assay V)
Outline: (§1)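 SPA beads with BHK Amylin 3(a)/CRE-luc cell membranes (35 ng/μL final) in 50 mM Hepes pH 7.4, 1 mM CaCl2, 5 mM MgCl₂, 0.1% OA, 0.02% Tween20.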

IC50 | Binder
0.533 nM | B5
0.992 nM | B6
0.152 nM | B7

target: T1, human amylin receptor (amylin 3(a) …); assay: SPA competition binding, displacement of 125I-rat amylin from membranes of BHK cells with human calcitonin receptor + RAMP-3 (Assay V)
Outline: as §1

IC50 | Binder
0.577 nM | B1
0.597 nM | B2
0.1 nM | B3
0.878 nM | B4
